From article PMC7961048 (2021)
Non-standard residues stand in square brackets, D forms with d. No end group written: not given here. *: point of attachment. Biotin = O=C1N[C@H]2[C@H](CS[C@H]2CCCCC(=O)*)N1; pT = C[C@@H](OP(=O)(O)O)[C@H](N)C(=O)O; ttds = NCCCOCCOCCOCCCNC(=O)CCC(=O)*

T1: full-length human 14-3-3τ fused to the C terminus of MBP (human, UniProt P27348 1-245)
T1 chain: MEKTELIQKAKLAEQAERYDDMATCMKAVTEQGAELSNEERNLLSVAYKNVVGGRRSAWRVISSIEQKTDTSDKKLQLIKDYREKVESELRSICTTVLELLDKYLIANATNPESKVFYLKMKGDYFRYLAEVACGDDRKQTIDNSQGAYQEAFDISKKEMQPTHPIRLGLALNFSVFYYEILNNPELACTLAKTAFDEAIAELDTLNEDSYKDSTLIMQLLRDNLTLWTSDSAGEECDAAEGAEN

T2: unfused 14-3-3β devoid of the flexible C-terminal tail (human)
T2 chain: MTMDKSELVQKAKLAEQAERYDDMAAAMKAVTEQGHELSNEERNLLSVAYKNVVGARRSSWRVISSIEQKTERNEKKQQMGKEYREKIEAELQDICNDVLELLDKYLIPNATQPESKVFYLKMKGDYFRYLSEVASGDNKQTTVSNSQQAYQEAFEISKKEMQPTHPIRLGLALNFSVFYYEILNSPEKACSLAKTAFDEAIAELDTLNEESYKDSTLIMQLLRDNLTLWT

T3: full-length human 14-3-3ζ fused to the C terminus of MBP (human, UniProt P63104 1-245)
T3 chain: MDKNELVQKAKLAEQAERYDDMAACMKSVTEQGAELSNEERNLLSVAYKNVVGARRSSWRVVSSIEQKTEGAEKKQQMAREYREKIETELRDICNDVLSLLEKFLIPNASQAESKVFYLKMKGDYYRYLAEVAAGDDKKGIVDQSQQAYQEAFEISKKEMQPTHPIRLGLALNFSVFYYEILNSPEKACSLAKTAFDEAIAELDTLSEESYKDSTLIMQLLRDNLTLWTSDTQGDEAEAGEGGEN

T4: full-length human 14-3-3σ fused to the C terminus of MBP (human, UniProt P31947 1-248)
T4 chain: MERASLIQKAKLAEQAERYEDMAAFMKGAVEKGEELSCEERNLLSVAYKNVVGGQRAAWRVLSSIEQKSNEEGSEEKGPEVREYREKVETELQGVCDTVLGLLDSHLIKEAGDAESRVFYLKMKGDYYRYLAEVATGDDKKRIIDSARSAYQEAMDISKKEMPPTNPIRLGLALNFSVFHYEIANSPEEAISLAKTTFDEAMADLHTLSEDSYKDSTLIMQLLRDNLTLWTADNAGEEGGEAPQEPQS

T5: full-length human 14-3-3β fused to the C terminus of MBP (human, UniProt P31946 1-246)
T5 chain: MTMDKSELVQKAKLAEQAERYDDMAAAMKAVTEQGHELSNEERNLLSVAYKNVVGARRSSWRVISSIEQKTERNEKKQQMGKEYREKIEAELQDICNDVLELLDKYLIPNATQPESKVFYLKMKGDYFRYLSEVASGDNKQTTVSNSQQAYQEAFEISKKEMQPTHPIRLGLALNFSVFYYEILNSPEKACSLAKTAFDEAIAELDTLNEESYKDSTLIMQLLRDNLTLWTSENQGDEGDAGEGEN

T6: full-length human 14-3-3γ fused to the C terminus of MBP (human, UniProt P61981 1-247)
T6 chain: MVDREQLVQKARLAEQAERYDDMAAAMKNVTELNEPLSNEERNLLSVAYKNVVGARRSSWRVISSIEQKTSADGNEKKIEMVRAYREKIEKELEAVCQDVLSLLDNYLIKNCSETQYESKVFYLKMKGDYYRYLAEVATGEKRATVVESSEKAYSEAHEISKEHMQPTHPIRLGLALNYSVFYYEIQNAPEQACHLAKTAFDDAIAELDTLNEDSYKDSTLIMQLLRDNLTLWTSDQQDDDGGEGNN

T7: full-length human 14-3-3η fused to the C terminus of MBP (human, UniProt Q04917 1-246)
T7 chain: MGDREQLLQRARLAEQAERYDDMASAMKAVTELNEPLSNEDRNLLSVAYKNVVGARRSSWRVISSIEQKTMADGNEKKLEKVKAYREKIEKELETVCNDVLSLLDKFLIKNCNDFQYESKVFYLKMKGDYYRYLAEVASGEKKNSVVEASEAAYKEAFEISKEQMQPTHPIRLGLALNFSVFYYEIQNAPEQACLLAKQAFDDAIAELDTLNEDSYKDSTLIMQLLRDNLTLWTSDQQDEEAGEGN


What was measured:
[1] = molecular target: T1, full-length human 14-3-3τ fused to the …; experiment: FP
[2] = molecular target: T2, unfused 14-3-3β devoid of the flexible …; experiment: FP
[3] = molecular target: T3, full-length human 14-3-3ζ fused to the …; experiment: FP
[4] = molecular target: T4, full-length human 14-3-3σ fused to the …; experiment: FP
[5] = molecular target: T5, full-length human 14-3-3β fused to the …; experiment: FP
[6] = molecular target: T6, full-length human 14-3-3γ fused to the …; experiment: FP
[7] = molecular target: T3, full-length human 14-3-3ζ fused to the …; experiment: FP; +FSC
[8] = molecular target: T6, full-length human 14-3-3γ fused to the …; experiment: FP; +FSC
[9] = molecular target: T3, full-length human 14-3-3ζ fused to the …; experiment: FP; with FSC
[10] = molecular target: T7, full-length human 14-3-3η fused to the …; experiment: FP

Binder	Kd [1]	Kd [2]	Kd [3]	Kd [4]	Kd [5]	Kd [6]	Kd [7]	Kd [8]	Kd [9]	Kd [10]
{Biotin-ttds}-RLQRRRE[pT]QV [HPV18 E6 phospho-PBM peptide p18E6]	37.8 µM	42.3 µM	22.4 µM	139 µM	42.2 µM	11.1 µM	37.3 µM	19.3 µM	37.3 µM	–
{Biotin-ttds}-SSRTRRE[pT]QL [HPV16 E6 phospho-PBM peptide p16E6]	144 µM	148 µM	73.6 µM	–	159 µM	37.2 µM	161 µM	91.7 µM	–	80.5 µM
